Data: paper PMC9482650, “Quantitative fragmentomics allow affinity mapping of interactomes” (Nature Communications, 2022)

T1: DFNB31_3, Q9P202
T1 sequence (Q9P202 811-907, limits assumed, looked up): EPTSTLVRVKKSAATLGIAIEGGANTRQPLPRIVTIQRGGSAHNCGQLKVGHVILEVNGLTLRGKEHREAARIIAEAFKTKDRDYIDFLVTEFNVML

T2: DLG3_2, Q92796
T2 sequence (Q92796 221-321, limits assumed, looked up): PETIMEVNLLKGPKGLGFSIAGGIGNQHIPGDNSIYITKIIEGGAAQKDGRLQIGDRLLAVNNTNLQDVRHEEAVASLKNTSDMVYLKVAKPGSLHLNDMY

T3: DVL3, Q92997
T3 sequence (Q92997 244-331, limits assumed, looked up): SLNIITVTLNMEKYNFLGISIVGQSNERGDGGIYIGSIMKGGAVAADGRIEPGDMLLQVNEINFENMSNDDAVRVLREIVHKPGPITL

T4: GRIP1_5, Q9Y3R0
T4 sequence (Q9Y3R0 568-668, limits assumed, looked up): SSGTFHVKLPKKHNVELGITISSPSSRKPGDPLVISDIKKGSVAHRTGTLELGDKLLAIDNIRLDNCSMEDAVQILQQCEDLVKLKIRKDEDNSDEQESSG

T5: LIN7C, Q9NUP9
T5 sequence (Q9NUP9 88-185, limits assumed, looked up): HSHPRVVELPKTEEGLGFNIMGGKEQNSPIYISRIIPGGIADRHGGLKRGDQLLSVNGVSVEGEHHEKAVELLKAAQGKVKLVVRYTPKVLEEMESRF

T6: LNX2_2, Q8N448
T6 sequence (Q8N448 334-432, limits assumed, looked up): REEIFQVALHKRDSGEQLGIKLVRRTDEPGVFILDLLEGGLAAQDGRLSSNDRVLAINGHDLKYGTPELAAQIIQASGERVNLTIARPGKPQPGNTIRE

T7: MPDZ_5, O75970
T7 sequence (O75970 695-796, limits assumed, looked up): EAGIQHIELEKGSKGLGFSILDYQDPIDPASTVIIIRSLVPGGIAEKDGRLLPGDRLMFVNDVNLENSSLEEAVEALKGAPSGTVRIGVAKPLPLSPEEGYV

T8: NHERF3_3, Q5T2W1
T8 sequence (Q5T2W1 238-333, limits assumed, looked up): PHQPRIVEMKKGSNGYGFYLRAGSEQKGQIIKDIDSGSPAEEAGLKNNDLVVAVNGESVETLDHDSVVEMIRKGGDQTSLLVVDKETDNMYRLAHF

T9: NHERF3_4, Q5T2W1
T9 sequence (Q5T2W1 373-468, limits assumed, looked up): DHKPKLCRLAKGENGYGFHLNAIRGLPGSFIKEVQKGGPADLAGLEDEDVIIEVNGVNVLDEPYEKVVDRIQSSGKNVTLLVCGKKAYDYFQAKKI

T10: SHANK1, Q9Y566
T10 sequence (Q9Y566 658-767, limits assumed, looked up): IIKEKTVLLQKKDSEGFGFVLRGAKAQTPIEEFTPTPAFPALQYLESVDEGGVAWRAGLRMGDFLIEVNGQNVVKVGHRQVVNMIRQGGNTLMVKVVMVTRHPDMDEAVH

T11: SIPA1L2, Q9P2F8
T11 sequence (Q9P2F8 945-1036, limits assumed, looked up): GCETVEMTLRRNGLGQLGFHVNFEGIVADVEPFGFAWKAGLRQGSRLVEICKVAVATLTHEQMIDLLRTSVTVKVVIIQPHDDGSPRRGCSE

T12: SNTB1, Q13884
T12 sequence (Q13884 107-205, limits assumed, looked up): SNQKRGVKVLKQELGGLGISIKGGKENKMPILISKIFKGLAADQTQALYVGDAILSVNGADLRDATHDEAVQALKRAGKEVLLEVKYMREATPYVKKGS


What was measured:
Assay in all cases: holdup assay
Parameters in all cases: key: below the threshold = too weak to quantify, mostly under pKd 3.1 to 4
Conditions in all cases: plain residues with an end cap or a label only (N-terminal biotin on a linker: ado-ado)
[1] = target: AHNAK1, Q09666
Chain of AHNAK1, Q09666 (Q09666 4-100): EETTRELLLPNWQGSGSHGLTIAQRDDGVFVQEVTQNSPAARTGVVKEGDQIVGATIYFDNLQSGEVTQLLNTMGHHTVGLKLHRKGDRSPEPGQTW

[2] = target: T1, DFNB31_3, Q9P202
[3] = target: T2, DLG3_2, Q92796
[4] = target: T3, DVL3, Q92997
[5] = target: FRMPD2_3, Q68DX3
Chain of FRMPD2_3, Q68DX3 (Q68DX3 1073-1166): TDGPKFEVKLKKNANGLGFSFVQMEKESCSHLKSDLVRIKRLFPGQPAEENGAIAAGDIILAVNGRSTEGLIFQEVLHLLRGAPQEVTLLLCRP

[6] = target: FRMPD4, Q14CM0
Chain of FRMPD4, Q14CM0 (Q14CM0 67-160): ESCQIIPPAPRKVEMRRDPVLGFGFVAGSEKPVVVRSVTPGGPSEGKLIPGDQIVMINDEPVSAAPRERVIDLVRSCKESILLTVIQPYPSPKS

[7] = target: GORASP1, Q9BQQ3
Chain of GORASP1, Q9BQQ3 (Q9BQQ3 1-208): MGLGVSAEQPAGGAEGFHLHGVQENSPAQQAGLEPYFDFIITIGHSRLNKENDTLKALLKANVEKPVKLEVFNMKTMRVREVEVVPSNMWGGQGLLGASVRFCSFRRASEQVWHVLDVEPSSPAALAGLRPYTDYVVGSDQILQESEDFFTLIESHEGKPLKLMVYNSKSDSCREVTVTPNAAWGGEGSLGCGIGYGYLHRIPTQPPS

[8] = target: GORASP2, Q9H8Y8
[9] = target: GRID2IP_1, A4D2P6
Chain of GRID2IP_1, A4D2P6 (A4D2P6 1-87): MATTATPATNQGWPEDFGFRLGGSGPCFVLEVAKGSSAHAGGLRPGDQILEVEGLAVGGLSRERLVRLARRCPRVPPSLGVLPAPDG

[10] = target: T4, GRIP1_5, Q9Y3R0
[11] = target: GRIP2_3, Q9C0E4
Chain of GRIP2_3, Q9C0E4 (Q9C0E4 238-339): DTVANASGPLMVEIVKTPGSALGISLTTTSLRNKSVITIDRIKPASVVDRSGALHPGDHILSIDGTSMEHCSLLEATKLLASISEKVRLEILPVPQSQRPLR

[12] = target: Inadl_2, Q8NI35
Chain of Inadl_2, Q8NI35 (Q8NI35 238-335): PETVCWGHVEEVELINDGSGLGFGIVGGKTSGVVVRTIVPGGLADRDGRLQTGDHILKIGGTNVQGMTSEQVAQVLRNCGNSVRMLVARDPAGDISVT

[13] = target: T5, LIN7C, Q9NUP9
[14] = target: LNX1_2, Q8TBB1
Chain of LNX1_2, Q8TBB1 (Q8TBB1 371-470): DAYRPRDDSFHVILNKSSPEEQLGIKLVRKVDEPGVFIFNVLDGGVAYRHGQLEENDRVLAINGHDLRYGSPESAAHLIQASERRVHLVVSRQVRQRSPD

[15] = target: T6, LNX2_2, Q8N448
[16] = target: MAGI3_2, Q5TCQ9
Chain of MAGI3_2, Q5TCQ9 (Q5TCQ9 398-503): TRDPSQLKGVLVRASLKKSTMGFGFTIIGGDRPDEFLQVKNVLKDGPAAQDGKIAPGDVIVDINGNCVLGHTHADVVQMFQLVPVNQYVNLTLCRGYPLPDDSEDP

[17] = target: T7, MPDZ_5, O75970
[18] = target: T8, NHERF3_3, Q5T2W1
[19] = target: T9, NHERF3_4, Q5T2W1
[20] = target: PICK1, Q9NRD5
Chain of PICK1, Q9NRD5 (Q9NRD5 17-115): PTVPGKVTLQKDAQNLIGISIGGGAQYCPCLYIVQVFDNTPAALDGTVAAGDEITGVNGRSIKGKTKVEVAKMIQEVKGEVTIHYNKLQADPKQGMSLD

[21] = target: SCRIB_2, Q14160
Chain of SCRIB_2, Q14160 (Q14160 857-960): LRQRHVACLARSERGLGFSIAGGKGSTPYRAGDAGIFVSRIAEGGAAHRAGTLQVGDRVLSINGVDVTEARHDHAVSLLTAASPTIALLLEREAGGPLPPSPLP

[22] = target: T10, SHANK1, Q9Y566
[23] = target: T11, SIPA1L2, Q9P2F8
[24] = target: T12, SNTB1, Q13884
[25] = target: TJP1_2, Q07157
Chain of TJP1_2, Q07157 (Q07157 181-274): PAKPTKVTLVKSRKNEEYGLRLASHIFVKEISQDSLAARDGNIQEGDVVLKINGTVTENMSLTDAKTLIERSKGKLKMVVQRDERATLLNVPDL

| Binder | pKd [1] | pKd [2] | pKd [3] | pKd [4] | pKd [5] | pKd [6] | pKd [7] | pKd [8] | pKd [9] | pKd [10] | pKd [11] | pKd [12] | pKd [13] | pKd [14] | pKd [15] | pKd [16] | pKd [17] | pKd [18] | pKd [19] | pKd [20] | further results |
| --- | --- | --- | --- | --- | --- | --- | --- | --- | --- | --- | --- | --- | --- | --- | --- | --- | --- | --- | --- | --- | --- |
| QLSFNTDTLC [ABCA2, Q9BZC7] | below the threshold | below the threshold | 4.26 | below the threshold | below the threshold | 4.03 | below the threshold | below the threshold | below the threshold | below the threshold | below the threshold | below the threshold | below the threshold | below the threshold | 3.78 | below the threshold | below the threshold | below the threshold | below the threshold | below the threshold | pKd [21]: below the threshold; pKd [22]: below the threshold; pKd [23]: below the threshold; pKd [24]: 3.59; pKd [25]: below the threshold |
| QKAPTKEFYA [SDC2, P34741] | below the threshold | 3.91 | 4.18 | below the threshold | 3.67 | 3.7 | 3.51 | 3.93 | below the threshold | below the threshold | below the threshold | below the threshold | below the threshold | 3.5 | below the threshold | below the threshold | 3.48 | below the threshold | 3.82 | below the threshold | pKd [21]: below the threshold; pKd [22]: 3.53; pKd [23]: below the threshold; pKd [24]: below the threshold; pKd [25]: below the threshold |
| EKCGKEFSEF [PRKACA, P17612] | below the threshold | below the threshold | 4.11 | below the threshold | below the threshold | below the threshold | below the threshold | below the threshold | below the threshold | below the threshold | below the threshold | below the threshold | below the threshold | below the threshold | 3.49 | below the threshold | below the threshold | below the threshold | below the threshold | 3.91 | pKd [21]: below the threshold; pKd [22]: below the threshold; pKd [23]: below the threshold; pKd [24]: below the threshold; pKd [25]: below the threshold |
| EDLEDEWEVI [TECPR2, O15040] | below the threshold | 3.76 | 4.09 | below the threshold | below the threshold | below the threshold | 4.12 | 4.44 | below the threshold | below the threshold | below the threshold | below the threshold | below the threshold | below the threshold | 4.18 | below the threshold | below the threshold | below the threshold | below the threshold | below the threshold | pKd [21]: below the threshold; pKd [22]: below the threshold; pKd [23]: below the threshold; pKd [24]: 3.68; pKd [25]: below the threshold |
